According to patent publication US6998239 (dated 2006):

T1: human CCX CKR with N-terminal Flag epitope, stably expressed on HEK293 cells (UniProt Q9NPB9 1-350)
T1 chain: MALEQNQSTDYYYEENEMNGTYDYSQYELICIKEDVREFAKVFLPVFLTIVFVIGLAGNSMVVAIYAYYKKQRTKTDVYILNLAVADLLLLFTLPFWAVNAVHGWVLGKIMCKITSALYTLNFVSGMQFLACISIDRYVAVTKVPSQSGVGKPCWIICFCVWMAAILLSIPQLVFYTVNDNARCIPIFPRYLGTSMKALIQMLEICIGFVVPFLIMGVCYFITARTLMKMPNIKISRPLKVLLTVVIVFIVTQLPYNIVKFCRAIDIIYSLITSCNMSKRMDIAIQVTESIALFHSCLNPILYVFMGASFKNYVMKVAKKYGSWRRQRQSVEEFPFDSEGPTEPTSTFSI

B1: human ELC (EBI1 ligand chemokine) (ligand)
chain: GTNDAEDCCLSVTQKPIPGYIVRNFHYLLIKDGCRVPAVVFTTLRGRQLCAPPDQPWVERIIQRLQRTSAKMKRRSS
modifications: 125I label where used as radioligand
B2: murine ELC (ligand)
chain: GANDAEDCCLSVTQRPIPGNIVKAFRYLLNEDGCRVPAVVFTTLRGYQLCAPPDQPWVDRIIRRLKKSSAKNKGNSTRRSPVS
B3: murine SLC (ligand)
chain: SDGGGQDCCLKYSQKKIPYSIVRGYRKQEPSLGCPIPAILFSPRKHSKPELCANPEEGWVQNLMRRLDQPPAPGKQSPGCRKNRGTSKSGKKGKGSKGCKRTEQTQPSRG
B4: mMIP-1gamma (murine macrophage inflammatory protein 1 gamma) (ligand)
chain: QITHATETKEVQSSLKAQQGLEIEMFHMGFQDSSDCCLSYNSRIQCSRFIGYFPTSGGCTRPGIIFISKRGFQVCANPSDRRVQRCIERLEQNSQPRTYKQ
B5: human SLC (secondary lymphoid-tissue chemokine) (ligand)
chain: SDGGAQDCCLKYSQRKIPAKVVRSYRKQEPSLGCSIPAILFLPRKRSQAELCADPKELWVQQLMQHLDKTPSPQKPAQGCRKDRGASKTGKKGKGSKGCKRTERSQTPKGP
B6: MCP-3 (ligand)
chain: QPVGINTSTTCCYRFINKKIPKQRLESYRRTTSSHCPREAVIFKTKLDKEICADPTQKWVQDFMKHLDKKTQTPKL
B7: human TECK (thymus expressed chemokine) (ligand)
chain: QGVFEDCCLAYHYPIGWAVLRRAWTYRIQEVSGSCNLPAAIFYLPKRHRKVCGNPKSREVQRAMKLLDARNKVFAKLHHNTQTFQAGPHAVKKLSSGNSKLSSSKFSNPISSSKRNVSLLISANSGL
modifications: 125I label where used as radioligand
B8: vMIPII (viral macrophage inflammatory protein II) from human Kaposi's sarcoma herpesvirus HHV8 (ligand)
chain: LGASWHRPDKCCLGYQKRPLPQVLLSSWYPTSQLCSKPGVIFLTKRGRQVCADKSKDWVKKLMQQLPVTAR
B9: murine TECK (ligand)
chain: QGAFEDCCLGYQHRIKWNVLRHARNYHQQEVSGSCNLRAVRFYFRQKVVCGNPEDMNVKRAMRILTARKRLVHWKSASDSQTERKKSNHMKSKVENPNSTSVRSATLGHPRMVMMPRKTNN

Target: T1, human CCX CKR with N-terminal Flag …
Assay: 125I-ELC competition binding

Binder	IC50
B1	6 nM
B2	1 nM
B3	4 nM
B4	70 nM
B5	12 nM
B6	> 2000 nM
B7	7 nM
B8	90 nM
B9	2 nM
